Measured values from patent publication US20160272698A1.
Ends that are not written are not given here.

Key:
[1] = molecular target: AVR1674 (LFG2 3F3:3H9:2C10:4B10); assay: biolayer interferometry (Octet), biotinylated peptide on streptavidin tips, LFG2:4B10 mAb in solution, 1:1 Langmuir fit
[2] = molecular target: AVR1674 (LFG2 3F3:3H9:2C10:4B10); assay: biolayer interferometry (Octet), biotinylated peptide on streptavidin tips, LFG2:4B10 mAb at 500 nM
[3] = molecular target: Bacillus anthracis lethal factor (recombinant LF) (Bacillus anthracis) (UniProt P15917); assay: immunoblot of denatured recombinant LF
Sequence of UniProt P15917 (P15917 34-809 limits assumed): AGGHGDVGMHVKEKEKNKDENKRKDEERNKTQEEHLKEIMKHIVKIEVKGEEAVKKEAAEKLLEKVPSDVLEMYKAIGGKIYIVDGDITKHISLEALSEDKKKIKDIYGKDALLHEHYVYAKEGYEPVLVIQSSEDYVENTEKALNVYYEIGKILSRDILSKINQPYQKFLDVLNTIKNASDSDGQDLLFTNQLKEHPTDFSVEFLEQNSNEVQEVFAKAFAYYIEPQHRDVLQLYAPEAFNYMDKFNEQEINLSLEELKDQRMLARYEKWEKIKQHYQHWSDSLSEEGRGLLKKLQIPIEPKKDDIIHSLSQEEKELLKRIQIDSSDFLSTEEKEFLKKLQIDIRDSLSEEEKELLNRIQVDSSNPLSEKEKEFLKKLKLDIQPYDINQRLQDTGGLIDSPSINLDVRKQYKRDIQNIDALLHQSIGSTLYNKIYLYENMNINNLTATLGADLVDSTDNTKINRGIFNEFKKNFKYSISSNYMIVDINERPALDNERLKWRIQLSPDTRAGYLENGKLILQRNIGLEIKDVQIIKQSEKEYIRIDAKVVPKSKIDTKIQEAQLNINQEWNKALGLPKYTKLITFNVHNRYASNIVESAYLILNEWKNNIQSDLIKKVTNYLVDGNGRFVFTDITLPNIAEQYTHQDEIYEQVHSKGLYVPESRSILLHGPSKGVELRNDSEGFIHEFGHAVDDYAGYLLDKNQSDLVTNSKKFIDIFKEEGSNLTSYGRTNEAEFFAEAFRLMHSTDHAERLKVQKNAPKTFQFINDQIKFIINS

[4] = molecular target: AVR1674 (LFG2 3F3:3H9:2C10:4B10); assay: biolayer interferometry (Octet), follow-up experiment, 4-point titration of mAb LFG2 against the peptide

B1: …-biotin (SEQ ID NO: 37) (peptide)
peptide: TFQDEIGGGSK-biotin
For B1, the Kd [1] was 34.4 nM and the Response R [2] was 1.34 nm.

B2: AVR1674 (LFG2 3F3:3H9:2C10:4B10) (antibody, V domains shown)
VH: EVQLQVSGAELVKPGASVRLSCKASGYTFTSYYIYWVKQRPGQGLEWIGDINPSDGDTDFNEKFKSKATLTVDKSSSTAYMQLSSLTSEDSAVYYCTRSRGGFAYWGQGTLVTVSA
VL: SHGDQASISSRSSQSIVHSNGNTYLEWYLQKPAQSPKLLIFKVSNRFSGVPDRFSRSGSGTDFTLKISRVEAEDLGIYYCSQGSHVPWTFGGGTKL
With B2 the amount of LF detected by immunoblot [3] was < 30 ng.

B3: …-biotin (SEQ ID NO: 30) (peptide)
peptide: TFKDAIGGGSK-biotin
With B3 the Kd [1] was 24.5 nM and the Response R [2] was 1.01 nm.

B4: …-biotin (SEQ ID NO: 25) (peptide)
peptide: TFKDEIGGGSK-biotin
In the case of B4, the Kd [4] is reported as 9.97 nM, the Kd [1] is reported as 13.9 nM and the Response R [2] is reported as 4.84 nm.

B5: …-biotin (SEQ ID NO: 31) (peptide)
peptide: TFKDEAGGGSK-biotin
B5 showed a Kd [1] of 16.4 nM and a Response R [2] of 5.29 nm.

B6: …-biotin (SEQ ID NO: 36) (peptide)
peptide: THKDEIGGGSK-biotin
In the case of B6, the Kd [1] is reported as 60 nM and the Response R [2] is reported as 2.37 nm.
